Measurements published in article doi:10.1101/750265.

Molecular target: dominant negative RACB-T20N, split-YFP fusion for BiFC (barley (Hordeum vulgare))
Experiment: split reporter

“RIPb, full length, split-YFP fusion for BiFC (natural protein)” was tested, and the BiFC signal relative to that with CA RACB was < 10%.
